In patent publication US20090130131A1:
Read-outs that look alike come from different tables or passages of the source.

Key:
[1] = biological target: Influenza split vaccine A/New Caledonia/20/99 (H1N1)
[2] = biological target: Influenza split vaccine B/Shanghai/361/2002
[3] = biological target: Influenza split vaccine A/New Caledonia/20/99 (H1N1); remark: listed apart in the source
[4] = biological target: Influenza split vaccine A/New York/55/2004 (H3N2)
[5] = biological target: Influenza split vaccine A/New Caledonia/20/99 (H1N1); remark: listed apart in the source

Molecule “Synthetic AD vehicle SSF-30 (from UniProt P07988 220-260)” has a Coupling Ratio (%) [1] of 91.3%.

“Synthetic AD vehicle SSF-28 (from UniProt P07988 201-260)” was tested, and the Coupling Ratio (%) [2] was 87.9%, the Coupling Ratio (%) [3] was 83% and the Coupling Ratio (%) [4] was 64.4%.

KLLLLKLLLLKLLLLKLLLL [Synthetic AD vehicle SSF-45] gave a Coupling Ratio (%) [5] of 64.8%.

IPCCPVHLKRLKLLLLLLLLILLLILGALLMGL [Synthetic AD vehicle SSF-46] showed a Coupling Ratio (%) [5] of 76.2%.

With FPIPLPYCWLCRALIKRIQAMIPKG [Synthetic AD vehicle SSF-14] the Coupling Ratio (%) [1] was 57%.

Molecule RMLPQLVCRLVLRCSMD [Synthetic AD vehicle SSF-24] has a Coupling Ratio (%) [1] of 91.3%.

In the case of GIPFFPVHLKRLKLLLLLLLLILLLILGALLIGL [Synthetic AD vehicle SSF-47], the Coupling Ratio (%) [5] is reported as 86.9%.

Work on PVHLKRLLLLLLLLLLLLLLLL [Synthetic AD vehicle SSF-44] yielded a Coupling Ratio (%) [5] of 72.8%.

FGIPSSPVHLKRLLILKLLLLKILLLKLGALLIGL [Synthetic AD vehicle SSF-48] was tested, and the Coupling Ratio (%) [5] was 66.3%.
